This series concerns Saccharomyces cerevisiae. The series can be described thus: transcriptional activation domain activity (GFP:mCherry ratio, weighted mean of sorted bins, harmonized to initial dataset scale) (arbitrary fluorescence ratio units); higher = stronger transcriptional activation. The settings on record: beta-estradiol 1 µM; induction time 4 h. On the procedure: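 53-aa protein tiles (fungal proteins plus yeast TF control tiles) fused C-terminally to a DBD-estrogen-binding domain-mCherry synthetic TF, integrated in S. cerevisiae (URA3 locus) with a GFP reporter. Cells were induced with 1 uM beta-estradiol for 4 h at 30 C, FACS-sorted into 8 bins by GFP:mCherry ratio and barcodes sequenced. Activity is the read-weighted mean bin fluorescence (GFP:mCherry), averaged over barcodes (median 12); tiles under 50 reads were discarded. New active-learning values were harmonized by linear fit onto the scale of the initial (Hummel et al.) dataset. The assay saturates at low and high signal.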

“ALKILVLLIFLMDTLHTYGVISYQWGLFLFCHHNATSACLSVLPWEIFMAVVL”: the “transcriptional activation domain activity” value was 56300.
Next, “ALKILVLLVFIMDTLHTYGIISYQWGLFLYCHHNASFACLSDLPWEVFMCVAL”: 41200; “ALKKKDGDKDSADFLSQLRMGKSVLHGVDKEGRPVVSVRVRLHKGGEQTEKSL”: 36600.
Next, “ALKLLVDKVEDPKKNGPKFLKRAQLVVTGFNSQLKARSQRIGHFVNLLQVYLT”: 61600.
Take “ALKVVVRVKMFGIGPLIYCSCLFVLLFSVVLLLLLAALYLMLQIYAALVVSAV”: the “transcriptional activation domain activity” value was 47100.
The figure for “ALLAISLTSFLCSSVFLEIETWCKKYRSHLLLVLMIPMVEPLISLFISFMWLL” is 62500.
With “ALLCLCWAPEPRGLLALGIGCLVFLFLYFYPCCFFFFFFYSYLCFCTVVLFFP”, the “transcriptional activation domain activity” value turned out to be 53300.
The figure for “ALLFLNTLLELLESYHKSQYLAEILSRLQVDWRSLWSWLSVFIRSYANLKMGT” is 28300.
As to “ALLKLLVMMLWEIEFYEPCFGALRLMDYITSEICPDSNLSAEATLLRIRTLIR”, the “transcriptional activation domain activity” value was determined as 58200.
On to “ALLNGQCGGANYTGPTVCVCGLNIIQGFMRIRKCSSLYMIVLALKLIFITFFS”, for which the “transcriptional activation domain activity” value was 90200.
For “ALLSSLHFGLGSHFRDIILKHPQWLIPLMRWLYIQNATYFNCSGIVKMSLLFQ”, the “transcriptional activation domain activity” value came out at 46400.
Regarding “ALNAIIEGFQLFRSAFQPASLSVSMVHSVSVLVNWPSPYFTSLLLPGYDIGFP”, the “transcriptional activation domain activity” value amounted to 62800.
On to “ALNDPSILETLSPFFQPFGVDVAHLPMTNPPIFQSSLPGCDEPIRRRRISISN”, for which the “transcriptional activation domain activity” value is 81300.
The figure for “ALNITYLFLGTYGWEYFGSCSVECALVCGRLAFRLSLIPYVLGRTSLLIYFIL” is 41000; for “ALNTFLDGLVFQLFPMVADLWIAAAYFFVVFDAYYSLMVISVTWFYIWMTIYM” it is 55200; for “ALNWYFLGTTMYFLYGESVIYYFKHILLVDRIFLPLATHHRFISFMLYILGFV” it is 66300.
The figure for “ALPERIKTFHAHGIFLALHCFLLQHGPQPISIWLLLALIKGRRRCLFPSIFFC” is 36200; for “ALRDSKSSDPKVKKEGEDFLAQLRIGKSYLHGLDAEGRPMCIVRARLHRAGEQ” it is 48900.
The figure for “ALRHRYIIGTSLCRLFIPLYFFACPYNTLFQDPNPLVWILLLYVSAQALLLLL” is 63900; for “ALRLCRSLLFLCFPFTPIHFFWGSYSDFPPFFFLPAFPRLTLSLLLFYLLPFS” it is 55100.
For the sequence “ALRREYLTLNGFMPSRINWAIQSSGVDYLHLLIIAMEHLITRFRLSARLAITV”, the “transcriptional activation domain activity” value worked out at 53800.
Next, “ALRRRTTDDGRLPREDLVHSEISVAVVSSPLSFASRFSPTPAVAVLVTALPVV”: 80600.
The figure for “ALSAWIIIQGYRVQWKTILLHDNLFVFTAASKSWVFAHAVYRFVLLTLPCFGS” is 40700; for “ALSSASSALSPLSGDPITTTETNKSYPLDSEQSLLEPDKTEEDAINQSKESNM” it is 15300.
With “ALSTADGGRVPAKRARKAINCGPCRLSKLKCDRERPCSSCKLRGTTASCYQGQ”, the “transcriptional activation domain activity” value was 34000.
Next, “ALSTRPFVLSDMIFFFGVGTLITLPIPFLVIYDYPYKKPRTYQVYLLICVWAW”: 61500.
Consider “ALTLEYFYFECSTPVPDGLLTDPLPPLPKLLVIHFFFYLSQHTIYLLLHILSQ”, for which the “transcriptional activation domain activity” value stood at 60200.
The figure for “ALTLVDPQGVLKCRIVLFCVIRGSVMVLGWWNYKLMHRWLLPGIIQCLSNIPV” is 64500.
Next, “ALVADPEYQRELDYMANGKQLLVPLRYLLNLVWRYCHGAQTICFSFFLLHGRN”: 64200; “ALVLLYIIRFVCTTLAKRFPSKSKLFFFMSTLRTVFVILLYTMISWLVNRHSR”: 44800.

The record behind these values is the supplement of paper PMC12636428.
